Assay results as given in paper PMC5669894 (2017).
Where two headings read alike, the source gives them in different places.

Assays:
[1] = molecular target: T1, C-terminal SH3 domain of the growth factor receptor-bound protein 2 (Grb2) (UniProt P62993 158-211)
[2] = molecular target: T1, C-terminal SH3 domain of the growth …; remark: listed apart in the source
[3] = molecular target: T1, C-terminal SH3 domain of the growth …; remark: listed apart in the source

T1 sequence (P62993 156-215): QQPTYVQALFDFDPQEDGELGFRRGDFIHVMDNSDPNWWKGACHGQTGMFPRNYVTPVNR

SRGSEIQPPPVNRNLKADRKAK [Gab2 503-524 peptide, variant P519A]
koff [1]: 250 s⁻¹

SRGSEIQAPPVNRNLKPDRKAK [Gab2 503-524 peptide, variant P510A]
koff [2]: 100 s⁻¹

SRGSEIQPPAVNRNLKPDRKAK [Gab2 503-524 peptide, variant P512A]
koff [3]: 90 s⁻¹
